Measured values taken from US20260207798A1, “CYCLIC PEPTIDES AS PET IMAGING AGENTS OF GRANZYME B” (priority 2022, published 2026).
Bridge positions count the residues as written; N and C are the ends.

B1: Compound 37a (peptide)
peptide: {CH2CO}-FNFEDQSAHTWQPCG-NH2
modifications: thioether N-14
SMILES: C[C@@H]1NC(=O)[C@H](CO)NC(=O)[C@H](CCC(N)=O)NC(=O)[C@H](CC(=O)O)NC(=O)[C@H](CCC(=O)O)NC(=O)[C@H](Cc2ccccc2)NC(=O)[C@H](CC(N)=O)NC(=O)[C@H](Cc2ccccc2)NC(=O)CSC[C@@H](C(=O)NCC(N)=O)NC(=O)[C@@H]2CCCN2C(=O)[C@H](CCC(N)=O)NC(=O)[C@H](Cc2c[nH]c3ccccc23)NC(=O)[C@H]([C@@H](C)O)NC(=O)[C@H](Cc2c[nH]cn2)NC1=O
B2: Compound 44a (peptide)
peptide: {CH2CO}-FNFEDQSPATWQPCG-NH2
modifications: thioether N-14
SMILES: C[C@@H]1NC(=O)[C@@H]2CCCN2C(=O)[C@H](CO)NC(=O)[C@H](CCC(N)=O)NC(=O)[C@H](CC(=O)O)NC(=O)[C@H](CCC(=O)O)NC(=O)[C@H](Cc2ccccc2)NC(=O)[C@H](CC(N)=O)NC(=O)[C@H](Cc2ccccc2)NC(=O)CSC[C@@H](C(=O)NCC(N)=O)NC(=O)[C@@H]2CCCN2C(=O)[C@H](CCC(N)=O)NC(=O)[C@H](Cc2c[nH]c3ccccc23)NC(=O)[C@H]([C@@H](C)O)NC1=O
B3: Compound 60a (peptide)
peptide: {CH2CO}-FNFEDQSPHTWQPCG-NH2
modifications: thioether N-14
SMILES: C[C@@H](O)[C@@H]1NC(=O)[C@H](Cc2c[nH]cn2)NC(=O)[C@@H]2CCCN2C(=O)[C@H](CO)NC(=O)[C@H](CCC(N)=O)NC(=O)[C@H](CC(=O)O)NC(=O)[C@H](CCC(=O)O)NC(=O)[C@H](Cc2ccccc2)NC(=O)[C@H](CC(N)=O)NC(=O)[C@H](Cc2ccccc2)NC(=O)CSC[C@@H](C(=O)NCC(N)=O)NC(=O)[C@@H]2CCCN2C(=O)[C@H](CCC(N)=O)NC(=O)[C@H](Cc2c[nH]c3ccccc23)NC1=O
B4: Compound 58a (peptide)
peptide: {CH2CO}-FNFEDQSPKTWQPCG-NH2
modifications: thioether N-14
SMILES: C[C@@H](O)[C@@H]1NC(=O)[C@H](CCCCN)NC(=O)[C@@H]2CCCN2C(=O)[C@H](CO)NC(=O)[C@H](CCC(N)=O)NC(=O)[C@H](CC(=O)O)NC(=O)[C@H](CCC(=O)O)NC(=O)[C@H](Cc2ccccc2)NC(=O)[C@H](CC(N)=O)NC(=O)[C@H](Cc2ccccc2)NC(=O)CSC[C@@H](C(=O)NCC(N)=O)NC(=O)[C@@H]2CCCN2C(=O)[C@H](CCC(N)=O)NC(=O)[C@H](Cc2c[nH]c3ccccc23)NC1=O
B5: Compound 39a (peptide)
peptide: {CH2CO}-YNFEDQSPDTWQPCG-NH2
modifications: thioether N-14
SMILES: C[C@@H](O)[C@@H]1NC(=O)[C@H](CC(=O)O)NC(=O)[C@@H]2CCCN2C(=O)[C@H](CO)NC(=O)[C@H](CCC(N)=O)NC(=O)[C@H](CC(=O)O)NC(=O)[C@H](CCC(=O)O)NC(=O)[C@H](Cc2ccccc2)NC(=O)[C@H](CC(N)=O)NC(=O)[C@H](Cc2ccc(O)cc2)NC(=O)CSC[C@@H](C(=O)NCC(N)=O)NC(=O)[C@@H]2CCCN2C(=O)[C@H](CCC(N)=O)NC(=O)[C@H](Cc2c[nH]c3ccccc23)NC1=O
B6: Compound 56a (peptide)
peptide: {CH2CO}-FNFEDQSPQTWQPCG-NH2
modifications: thioether N-14
SMILES: C[C@@H](O)[C@@H]1NC(=O)[C@H](CCC(N)=O)NC(=O)[C@@H]2CCCN2C(=O)[C@H](CO)NC(=O)[C@H](CCC(N)=O)NC(=O)[C@H](CC(=O)O)NC(=O)[C@H](CCC(=O)O)NC(=O)[C@H](Cc2ccccc2)NC(=O)[C@H](CC(N)=O)NC(=O)[C@H](Cc2ccccc2)NC(=O)CSC[C@@H](C(=O)NCC(N)=O)NC(=O)[C@@H]2CCCN2C(=O)[C@H](CCC(N)=O)NC(=O)[C@H](Cc2c[nH]c3ccccc23)NC1=O
B7: Compound 46a (peptide)
peptide: {CH2CO}-FNFEDQSPRTWQPCG-NH2
modifications: thioether N-14
SMILES: C[C@@H](O)[C@@H]1NC(=O)[C@H](CCCNC(=N)N)NC(=O)[C@@H]2CCCN2C(=O)[C@H](CO)NC(=O)[C@H](CCC(N)=O)NC(=O)[C@H](CC(=O)O)NC(=O)[C@H](CCC(=O)O)NC(=O)[C@H](Cc2ccccc2)NC(=O)[C@H](CC(N)=O)NC(=O)[C@H](Cc2ccccc2)NC(=O)CSC[C@@H](C(=O)NCC(N)=O)NC(=O)[C@@H]2CCCN2C(=O)[C@H](CCC(N)=O)NC(=O)[C@H](Cc2c[nH]c3ccccc23)NC1=O
B8: Compound 65a (peptide)
peptide: {CH2CO}-FNFEDQSPGTWQPCG-NH2
modifications: thioether N-14
SMILES: C[C@@H](O)[C@@H]1NC(=O)CNC(=O)[C@@H]2CCCN2C(=O)[C@H](CO)NC(=O)[C@H](CCC(N)=O)NC(=O)[C@H](CC(=O)O)NC(=O)[C@H](CCC(=O)O)NC(=O)[C@H](Cc2ccccc2)NC(=O)[C@H](CC(N)=O)NC(=O)[C@H](Cc2ccccc2)NC(=O)CSC[C@@H](C(=O)NCC(N)=O)NC(=O)[C@@H]2CCCN2C(=O)[C@H](CCC(N)=O)NC(=O)[C@H](Cc2c[nH]c3ccccc23)NC1=O
B9: Compound 63a (peptide)
peptide: {CH2CO}-FNFEDQGPDTWQPCG-NH2
modifications: thioether N-14
SMILES: C[C@@H](O)[C@@H]1NC(=O)[C@H](CC(=O)O)NC(=O)[C@@H]2CCCN2C(=O)CNC(=O)[C@H](CCC(N)=O)NC(=O)[C@H](CC(=O)O)NC(=O)[C@H](CCC(=O)O)NC(=O)[C@H](Cc2ccccc2)NC(=O)[C@H](CC(N)=O)NC(=O)[C@H](Cc2ccccc2)NC(=O)CSC[C@@H](C(=O)NCC(N)=O)NC(=O)[C@@H]2CCCN2C(=O)[C@H](CCC(N)=O)NC(=O)[C@H](Cc2c[nH]c3ccccc23)NC1=O
B10: Compound 59a (peptide)
peptide: {CH2CO}-FNFEDQSPYTWQPCG-NH2
modifications: thioether N-14
SMILES: C[C@@H](O)[C@@H]1NC(=O)[C@H](Cc2ccc(O)cc2)NC(=O)[C@@H]2CCCN2C(=O)[C@H](CO)NC(=O)[C@H](CCC(N)=O)NC(=O)[C@H](CC(=O)O)NC(=O)[C@H](CCC(=O)O)NC(=O)[C@H](Cc2ccccc2)NC(=O)[C@H](CC(N)=O)NC(=O)[C@H](Cc2ccccc2)NC(=O)CSC[C@@H](C(=O)NCC(N)=O)NC(=O)[C@@H]2CCCN2C(=O)[C@H](CCC(N)=O)NC(=O)[C@H](Cc2c[nH]c3ccccc23)NC1=O
B11: Compound 57a (peptide)
peptide: {CH2CO}-FNFEDQSPSTWQPCG-NH2
modifications: thioether N-14
SMILES: C[C@@H](O)[C@@H]1NC(=O)[C@H](CO)NC(=O)[C@@H]2CCCN2C(=O)[C@H](CO)NC(=O)[C@H](CCC(N)=O)NC(=O)[C@H](CC(=O)O)NC(=O)[C@H](CCC(=O)O)NC(=O)[C@H](Cc2ccccc2)NC(=O)[C@H](CC(N)=O)NC(=O)[C@H](Cc2ccccc2)NC(=O)CSC[C@@H](C(=O)NCC(N)=O)NC(=O)[C@@H]2CCCN2C(=O)[C@H](CCC(N)=O)NC(=O)[C@H](Cc2c[nH]c3ccccc23)NC1=O

The binders below were run against T1, human Granzyme B (human, UniProt P10144 21-247) (assay: SPR, Biacore 8k+, hGranzyme B captured on SA chip, single cycle kinetics, 1:1 model).
T1 construct: Captured on a Series S Streptavidin chip for SPR; also called hGranzyme B; GzmB
T1 sequence (P10144 21-247 limits assumed): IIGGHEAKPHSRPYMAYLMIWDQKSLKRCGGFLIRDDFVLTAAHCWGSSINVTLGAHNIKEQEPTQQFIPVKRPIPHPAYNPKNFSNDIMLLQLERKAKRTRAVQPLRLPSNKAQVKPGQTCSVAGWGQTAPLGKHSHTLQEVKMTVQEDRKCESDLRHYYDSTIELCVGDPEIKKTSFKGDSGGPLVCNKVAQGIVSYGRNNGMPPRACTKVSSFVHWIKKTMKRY
Description: The kinetics of test peptide binding to human Granzyme B (hGranzyme B) was determined by SPR. All experiments were performed at 25° C. using the Biacore 8k+ instrument (Cytiva, Marlborough, MA). The Biacore 8k+ Insight Evaluation Software Version 3.0 was used to fit the data with a 1:1 binding model to determine the association rate constant kₐ (M⁻¹s⁻¹, where “M” ~equals molar and “s” ~equals seconds) and the dissociation rate constant kd (s⁻¹). These rate constants were used to calculate the equilibrium dissociation constant. KD (M)=kd/kₐ.
To measure the binding kinetics of peptides of interest, surfaces were prepared by a capture method to a Series S Streptavidin (SA) chip using a 1×HBS-EP+ running buffer (Cytiva). hGranzyme B was diluted to 10 μg/mL in IX HBS-EP+ and flowed over spot 2 of each flow cell on the chip at a flow rate of 10 ul/min for 20 s to achieve a level of capture of ~1100 RU. An unmodified spot 1 of each flow cell was used as a matrix binding control or reference surface. Binding kinetics were measured using single cycle kinetics at 25° C. by injecting 5 concentrations with 3-fold serial dilutions of test peptides from 0.01 μM to 1 μM. Compound dilutions were performed manually in a running buffer containing 1×HBS-EP+(Cytiva), and a final concentration of 2% DMSO. The interaction analyses over hGranzyme B, were performed using a 120 s association time and a 900 s dissociation time. All experiments were conducted at a flow rate of 50 μL/min with a data collection rate of 10 Hz.
Peptide dilution series included 2 zero concentration points (no compound) which were averaged and subtracted from the peptide concentration injection as DMSO control responses. Binding data acquired from the reference surface (matrix binding control) were subtracted from the binding data for hGranzyme B surface on the chip to determine specific binding. Next, the association phase data were solvent corrected to account for any signal fluctuation throughout the experiment due to subtle DMSO concentration differences. Corrected response data were analyzed using the Biacore 8k+ Evaluation Software Version 3.0 according to the manufacturer. SPR data for representative compounds of the disclosure are found in Table 8.
With B1 the Kd was 19.1 nM. B2 gave a Kd of 3.5 nM. For B3, the Kd was 6.1 nM. B4 gave a Kd of 5.9 nM. For B5, the Kd was 1.1 nM. In the case of B6, the Kd is reported as 5.5 nM. For B7, the Kd was 3.8 nM. Work on B8 yielded a Kd of 11 nM. B9 showed a Kd of 7.1 nM. With B10 the Kd was 6 nM. Binder B11 has a Kd of 5.7 nM.
